What was measured:
PeAAO1 [1] = target: T1, PeAAO1 (Pleurotus eryngii, UniProt O94219, K583E/Q584R); assay: flavin absorption spectrum; FAD released on heat denaturation; type: binding; details: non-covalently bound; absorbance maxima 463 and 383 nm
T1 construct: gene aao; secreted glycoprotein from P. pastoris X-33 (codon-optimised gene in pPICZA); signal peptide removed; theoretical 61 kDa, about 100 kDa on SDS-PAGE, 70 kDa deglycosylated; only mutants expressed (ER, NER, AER)

PeAAO1 [2] = target: T2, PeAAO1 (Pleurotus eryngii, UniProt O94219, D361N/K583E/Q584R); assay: as above; type: binding; details: non-covalently bound; absorbance maxima 463 and 383 nm
T2 construct: gene aao; secreted glycoprotein from P. pastoris X-33 (codon-optimised gene in pPICZA); signal peptide removed; theoretical 61 kDa, about 100 kDa on SDS-PAGE, 70 kDa deglycosylated; only mutants expressed (ER, NER, AER)

PeAAO1 [3] = target: T3, PeAAO1 (Pleurotus eryngii, UniProt O94219, V367A/K583E/Q584R); assay: as above; type: binding; details: non-covalently bound; absorbance maxima 463 and 383 nm
T3 construct: gene aao; secreted glycoprotein from P. pastoris X-33 (codon-optimised gene in pPICZA); signal peptide removed; theoretical 61 kDa, about 100 kDa on SDS-PAGE, 70 kDa deglycosylated; only mutants expressed (ER, NER, AER)

purified protein = substrate: COc1ccc(CO)cc1OC; assay: purified protein; type: biochemical, Pleurotus eryngii; details: 100 mM sodium phosphate pH 6, 25 °C, O2 as co-substrate, glycosylated enzyme

| Molecule | flavin absorption spectrum; FAD released on heat denaturation (PeAAO1 [1]) | flavin absorption spectrum; FAD released on heat denaturation (PeAAO1 [2]) | flavin absorption spectrum; FAD released on heat denaturation (PeAAO1 [3]) | Km (purified protein) [µM] | kcat (purified protein) [s⁻¹] | kcat/Km (purified protein) [M⁻¹ s⁻¹] |
| --- | --- | --- | --- | --- | --- | --- |
| Cc1cc2nc3c(=O)[nH]c(=O)nc-3n(C[C@H](O)[C@H](O)[C@H](O)COP(=O)(O)OP(=O)(O)OC[C@H]3O[C@@H](n4cnc5c(N)ncnc54)[C@H](O)[C@@H]3O)c2cc1C [FAD] | calculated based on absorbance of the released FAD after heat precipitation of the apoprotein | calculated based on absorbance of the released FAD after heat precipitation of the apoprotein | calculated based on absorbance of the released FAD after heat precipitation of the apoprotein |  |  |  |
| PeAAO1 (Pleurotus eryngii; K583E/Q584R) (protein, secreted glycoprotein from P. pastoris X-33 (codon-optimised gene in pPICZA); signal peptide removed; theoretical 61 kDa, about 100 kDa on SDS-PAGE, 70 kDa deglycosylated; only mutants expressed (ER, NER, AER)) ADFDYVVVGAGNAGNVVAARLTEDPDVSVLVLEAGVSDENVLGAEAPLLAPGLVPNSIFDWNYTTTAQAGYNGRSIAYPRGRMLGGSSSVHYMVMMRGSTEDFDRYAAVTGDEGWNWDNIQQFVRKNEMVVPPADNHNTSGEFIPAVHGTNGSVSISLPGFPTPLDDRVLATTQEQSEEFFFNPDMGTGHPLGISWSIASVGNGQRSSSSTAYLRPAQSRPNLSVLINAQVTKLVNSGTTNGLPAFRCVEYAEQEGAPTTTVCAKKEVVLSAGSVGTPILLQLSGIGDENDLSSVGIDTIVNNPSVGRNLSDHLLLPAAFFVNSNQTFDNIFRDSSEFNVDLDQWTNTRTGPLTALIANHLAWLRLPSNSSIFQTFPDPAAGPNSAHWETIFSNQWFHPAIPRPDTGSFMSVTNALISPVARGDIKLATSNPFDKPLINPQYLSTEFDIFTMIQAVKSNLRFLSGQAWADFVIRPFDPRLRDPTDDAAIESYIRDNANTIFHPVGTASMSPRGASWGVVDPDLKVKGVDGLRIVDGSILPFAPNAHTQGPIYLVGERGADLIKADQ |  |  |  | 549.0 ± 12.6 | 54.9 ± 0.02 | 100000 |
| PeAAO1 (Pleurotus eryngii; D361N/K583E/Q584R) (protein, secreted glycoprotein from P. pastoris X-33 (codon-optimised gene in pPICZA); signal peptide removed; theoretical 61 kDa, about 100 kDa on SDS-PAGE, 70 kDa deglycosylated; only mutants expressed (ER, NER, AER)) ADFDYVVVGAGNAGNVVAARLTEDPDVSVLVLEAGVSDENVLGAEAPLLAPGLVPNSIFDWNYTTTAQAGYNGRSIAYPRGRMLGGSSSVHYMVMMRGSTEDFDRYAAVTGDEGWNWDNIQQFVRKNEMVVPPADNHNTSGEFIPAVHGTNGSVSISLPGFPTPLDDRVLATTQEQSEEFFFNPDMGTGHPLGISWSIASVGNGQRSSSSTAYLRPAQSRPNLSVLINAQVTKLVNSGTTNGLPAFRCVEYAEQEGAPTTTVCAKKEVVLSAGSVGTPILLQLSGIGDENDLSSVGIDTIVNNPSVGRNLSDHLLLPAAFFVNSNQTFDNIFRNSSEFNVDLDQWTNTRTGPLTALIANHLAWLRLPSNSSIFQTFPDPAAGPNSAHWETIFSNQWFHPAIPRPDTGSFMSVTNALISPVARGDIKLATSNPFDKPLINPQYLSTEFDIFTMIQAVKSNLRFLSGQAWADFVIRPFDPRLRDPTDDAAIESYIRDNANTIFHPVGTASMSPRGASWGVVDPDLKVKGVDGLRIVDGSILPFAPNAHTQGPIYLVGERGADLIKADQ |  |  |  | 546.7 ± 5.8 | 68.2 ± 0.05 | 125000 |
| PeAAO1 (Pleurotus eryngii; K583E/Q584R/V367A) (protein, secreted glycoprotein from P. pastoris X-33 (codon-optimised gene in pPICZA); signal peptide removed; theoretical 61 kDa, about 100 kDa on SDS-PAGE, 70 kDa deglycosylated; only mutants expressed (ER, NER, AER)) ADFDYVVVGAGNAGNVVAARLTEDPDVSVLVLEAGVSDENVLGAEAPLLAPGLVPNSIFDWNYTTTAQAGYNGRSIAYPRGRMLGGSSSVHYMVMMRGSTEDFDRYAAVTGDEGWNWDNIQQFVRKNEMVVPPADNHNTSGEFIPAVHGTNGSVSISLPGFPTPLDDRVLATTQEQSEEFFFNPDMGTGHPLGISWSIASVGNGQRSSSSTAYLRPAQSRPNLSVLINAQVTKLVNSGTTNGLPAFRCVEYAEQEGAPTTTVCAKKEVVLSAGSVGTPILLQLSGIGDENDLSSVGIDTIVNNPSVGRNLSDHLLLPAAFFVNSNQTFDNIFRDSSEFNADLDQWTNTRTGPLTALIANHLAWLRLPSNSSIFQTFPDPAAGPNSAHWETIFSNQWFHPAIPRPDTGSFMSVTNALISPVARGDIKLATSNPFDKPLINPQYLSTEFDIFTMIQAVKSNLRFLSGQAWADFVIRPFDPRLRDPTDDAAIESYIRDNANTIFHPVGTASMSPRGASWGVVDPDLKVKGVDGLRIVDGSILPFAPNAHTQGPIYLVGERGADLIKADQ |  |  |  | 541.9 ± 6.4 | 58.5 ± 0.03 | 108000 |

— article PMC8502153, “Two adjacent C-terminal mutations enable expression of aryl-alcohol oxidase from Pleurotus eryngii in Pichia pastoris” (Applied Microbiology and Biotechnology, 2021)
